# Assay results published in PMC10661027, “Tuning Plant Promoters Using a Simple Split Luciferase Method to Assess Transcription Factor-DNA Interactions”.
# T1: AtTGA1:HiBiT (Arabidopsis thaliana, UniProt Q39237 1-368)
# T1 sequence: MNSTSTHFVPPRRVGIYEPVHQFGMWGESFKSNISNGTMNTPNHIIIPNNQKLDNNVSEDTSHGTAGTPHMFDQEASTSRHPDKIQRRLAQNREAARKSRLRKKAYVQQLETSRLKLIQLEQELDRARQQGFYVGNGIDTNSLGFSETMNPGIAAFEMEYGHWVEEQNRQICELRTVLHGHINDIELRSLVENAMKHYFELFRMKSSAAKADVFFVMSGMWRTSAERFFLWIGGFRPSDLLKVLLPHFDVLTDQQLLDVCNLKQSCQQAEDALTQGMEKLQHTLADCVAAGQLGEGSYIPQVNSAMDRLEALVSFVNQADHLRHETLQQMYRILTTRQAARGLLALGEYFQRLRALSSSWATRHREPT
# Legend:
# AtTGA1:HiBiT [1] = biological target: T1, AtTGA1:HiBiT; assay: qTFD (HiBiT luminescence microplate, relative to rnd); qTFD: 25 mM Tris-HCl pH 8.0, 100 mM KCl, 2 mM DTT, 1 mM EDTA, 0.1% BSA, 500 ng poly(dI-dC), 5% glycerol, 0.05% IGEPAL CA630, 1.5-50 nM protein, 1-3 h, room temperature; EMSA as in cited earlier work; settings: protein: recombinant; tags: C-terminal HiBiT (VSGWRLFKKIS); pH9GW vector, Ni-NTA purified; chain copies: 2; label: none; blunt
# AtTGA1:HiBiT [2] = biological target: T1, AtTGA1:HiBiT; assay: qTFD (HiBiT luminescence microplate, relative to rnd); strong rQ; qTFD: 25 mM Tris-HCl pH 8.0, 100 mM KCl, 2 mM DTT, 1 mM EDTA, 0.1% BSA, 500 ng poly(dI-dC), 5% glycerol, 0.05% IGEPAL CA630, 1.5-50 nM protein, 1-3 h, room temperature; EMSA as in cited earlier work; settings: protein: recombinant; tags: C-terminal HiBiT (VSGWRLFKKIS); pH9GW vector, Ni-NTA purified; chain copies: 2; label: none; blunt
# AtTGA1:HiBiT [3] = biological target: T1, AtTGA1:HiBiT; assay: EMSA; 1.5-15 nM protein; reduced by unlabelled competitor; qTFD: 25 mM Tris-HCl pH 8.0, 100 mM KCl, 2 mM DTT, 1 mM EDTA, 0.1% BSA, 500 ng poly(dI-dC), 5% glycerol, 0.05% IGEPAL CA630, 1.5-50 nM protein, 1-3 h, room temperature; EMSA as in cited earlier work; settings: protein: recombinant; tags: C-terminal HiBiT (VSGWRLFKKIS); pH9GW vector, Ni-NTA purified; chain copies: 2; label: Cy5 (primers); blunt
binder,measurement,setting,value
CaMV35s as1 (dsDNA) DNA 1: ATGAAGACGCTGGGTTTACATGGGAATGGCTGACGTAAGGGATGACGCACATGCTTCTGTTCTAACAGGCTAGGATATAA DNA 2: TTATATCCTAGCCTGTTAGAACAGAAGCATGTGCGTCATCCCTTACGTCAGCCATTCCCATGTAAACCCAGCGTCTTCAT,binding result,AtTGA1:HiBiT [1],binds
TFBS_02 (dsDNA) DNA 1: TAGCGAAGTACGATCCCGGACCGCTACATTCCAAATAGTCTGACGTAAGCAATGACAAAACTCACCTACATGGCCATCACGCAGTA DNA 2: TACTGCGTGATGGCCATGTAGGTGAGTTTTGTCATTGCTTACGTCAGACTATTTGGAATGTAGCGGTCCGGGATCGTACTTCGCTA,binding result,AtTGA1:HiBiT [2],binds
CaMV35s as1 80 bp Cy5 EMSA probe (dsDNA) DNA 1: ATGAAGACGCTGGGTTTACATGGGAATGGCTGACGTAAGGGATGACGCACATGCTTCTGTTCTAACAGGCTAGGATATAA DNA 2: TTATATCCTAGCCTGTTAGAACAGAAGCATGTGCGTCATCCCTTACGTCAGCCATTCCCATGTAAACCCAGCGTCTTCAT,binding result,AtTGA1:HiBiT [3],binds
